Source: PMC3798605, “Independent Pathways Can Transduce the Life-Cycle Differentiation Signal in Trypanosoma brucei” (PLoS Pathogens, 2013)

Target: TbPTP1
Assay: SPR
Details: 2 mM citrate, 25°C, 10 mM HEPES, pH 7.4, 150 mM NaCl, 0.05% P20, 2 mM DTT, 20 mM MgCl2; for kon: parent: 0.0012; for koff: parent: 0.05; for Kd: parent: 42

Substance: TbPIP39 wild type D57A
- kon: 0.0013 µM⁻¹ s⁻¹
- koff: 0.04 s⁻¹
- Kd: 31 µM

Substance: TbPIP39 wild type DD mutant
- kon: 0.0012 µM⁻¹ s⁻¹
- koff: 0.05 s⁻¹
- Kd: 42 µM

Substance: TbPIP39 wild type T63A; V64A
- kon: 0.0011 µM⁻¹ s⁻¹
- koff: 0.03 s⁻¹
- Kd: 30 µM
